Source: patent US20250282876A1, “STABLE Fc FRAGMENTS, CONJUGATES, COMPOSITIONS, AND METHODS OF USE” (PURDUE RESEARCH FOUNDATION, priority 2022, published 2025)

How the values were obtained:
[1] = test system: antibody-dependent cellular phagocytosis (ADCP); assay: ADCP activity of mFc mutant (Example 1 statement); type: cell-based; conditions: compared to WT
FcγRIIb = molecular target: T1, FcγRIIb (Homo sapiens, UniProt P31994); assay: Binding of mFc mutant compared with wild-type (Example 1 statement); conditions: as compared to WT
T1 sequence (P31994 43-310): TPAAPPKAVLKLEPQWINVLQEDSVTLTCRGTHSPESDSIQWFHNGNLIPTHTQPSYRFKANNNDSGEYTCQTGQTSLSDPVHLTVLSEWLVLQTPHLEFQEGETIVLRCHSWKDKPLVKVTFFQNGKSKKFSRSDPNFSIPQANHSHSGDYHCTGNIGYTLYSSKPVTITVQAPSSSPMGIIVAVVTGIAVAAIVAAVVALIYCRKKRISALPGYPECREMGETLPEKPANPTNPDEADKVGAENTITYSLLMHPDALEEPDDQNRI

CD32b = molecular target: T2, CD32b (Homo sapiens, UniProt P31994); assay: Bio Layer Interferometry (Octet) binding of monomeric Fc variants to FcγR; conditions: huFcγR variant CD32b; 1:1 Langmuir fit; * denotes weak binding/inaccurate KD
T2 construct: purchased Beijing Sino Biological Inc
T2 sequence (P31994 43-310): T1 sequence (P31994 43-310)

FcγRIIIa = FcγRIIIa (Homo sapiens, UniProt P08637); assay: Binding affinity of mFc mutant compared with wild-type (Example 1 statement); conditions: comparative with wild-type (WT)
[2] = test system: antibody-dependent cell-mediated cytotoxicity (ADCC); assay: ADCC activity of mFc mutant (Example 1 statement); type: cell-based; conditions: compared to WT
CD16a (176F) = molecular target: T3, CD16a (176F) (Homo sapiens, UniProt P08637); assay: Bio Layer Interferometry (Octet) binding of monomeric Fc variants to FcγR; conditions: huFcγR variant CD16a(176F); 1:1 Langmuir fit; * denotes weak binding/inaccurate KD
T3 construct: purchased Beijing Sino Biological Inc
T3 sequence (P08637 17-254): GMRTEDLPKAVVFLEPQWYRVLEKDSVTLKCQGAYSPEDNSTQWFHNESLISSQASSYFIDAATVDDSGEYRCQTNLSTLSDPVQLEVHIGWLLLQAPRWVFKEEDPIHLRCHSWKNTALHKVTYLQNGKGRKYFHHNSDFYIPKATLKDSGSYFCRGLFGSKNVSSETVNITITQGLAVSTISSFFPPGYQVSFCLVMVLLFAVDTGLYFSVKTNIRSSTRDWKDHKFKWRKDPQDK

Sequence of FcγRIIIa (P08637 17-254): as above

Row | Substance | ADCP activity [1] | binding to inhibitory FcγRIIb (FcγRIIb) | Kd (CD32b) | binding affinity to FcγRIIIa (FcγRIIIa) | ADCC activity [2] | Kd (CD16a (176F))
1 | Mono-Fc DLE: modified Fc region of human IgG1 with DLE mutation (Ser239Asp/Ala330Leu/Ile332Glu) | enhanced | low binding | 1.34 nM | increased FcγRIIIa affinity | enhanced | 
2 | Mono-Fc WT: wild-type Fc region of human IgG1 (aa 216-447), expressed as about 26 kDa monomeric form [reference compound] |  |  | 3760 nM |  |  | < 0.001 nM
